Laboratory results as given in IntAct's records for PubMed 19207211.

B1: Oxysterol-binding protein-related protein 3A (Arabidopsis thaliana (Mouse-ear cress)), Q9LZM1 (parent)
chain: MASNDPKNGGGFFASLASSITNFGSAMSKSVNGLMGYEGLEVINPEGSTDDAEEEAGRGRWKQEERDGYWKMMQKYIGSDVTSMVTLPVIIFEPMTMLQKMAELMEYSYLLDMADKTEDPYMRMVYASSWAISVYYAYQRTWKPFNPILGETYEMTNHNGINFIAEQVCHHPPMSAGHAENEHFAYDCTSKLKTKFLGNSIDVYPVGRTRVTLKRDGVVLDLVPPLTKVHNLIFGRTWVDSPGEMVMTNLTTGDKVVLYFQPCGWFGSGRYEVDGYVYNSAEEPKMLMTGKWNESLSYQPCDAEGEPLPGTELKEVWKVAEAPKNDKYQYTHFAHKINSFDTAPKKLLSSDSRLRPDRYALEMGDMSKSGFEKSSLEDRQRAEKKSREEKGQKFAPKWFDETEEVTPTPWGDLEVYQFNGKYSVHRATAENSEDTTDVKLTQFNPWQFQDLSA
partner: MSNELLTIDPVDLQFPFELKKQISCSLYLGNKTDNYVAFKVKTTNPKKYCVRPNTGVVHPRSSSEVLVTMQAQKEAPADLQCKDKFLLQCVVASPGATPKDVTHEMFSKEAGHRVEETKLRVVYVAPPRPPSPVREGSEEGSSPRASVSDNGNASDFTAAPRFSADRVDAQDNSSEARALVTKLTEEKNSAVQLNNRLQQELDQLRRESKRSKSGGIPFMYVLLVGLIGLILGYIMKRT

Variants of: B1
Settings: with vap12_arath PVA12, Q9SHC8

Variant | effect of a mutation on the interaction
W398A;F399A;D400G;E401G;E403G | disrupting interaction
